Key:
[1] = molecular target: component of tight junctions expressed by L-cells; assay: flow cytometry on L cells, 20 µg Arah2-pσ1, detected with anti-pσ1 rabbit serum and FITC-labeled anti-rabbit
[2] = molecular target: Arah2-pσ1 fusion protein; assay: flow cytometry; control serum in place of anti-pσ1 serum on HeLa cells stained with Arah2-pσ1, FITC-labeled anti-rabbit
[3] = molecular target: Arah2-pσ1 fusion protein; assay: flow cytometry; control serum in place of anti-pσ1 serum on L cells stained with Arah2-pσ1, FITC-labeled anti-rabbit

Q: Arah2-pσ1 fusion protein was tested. Which MFI [1] did it give?
A: The MFI was 1880 MFI.

Q: With normal rabbit serum as the substance, how does the MFI [2] read?
A: The MFI was 26 MFI.

Q: What about the MFI [3] of the same substance?
A: The MFI was 32 MFI.
